Laboratory results: publication PMC8011160, “GroEL protein of the Leptospira spp. interacts with host proteins and induces cytokines secretion on macrophages” (BMC Microbiology, 2021)

T1: fibrinogen (purified from human plasma) (human, UniProt P02671-2 20-644; P02675 31-491; P02679-2 27-437)
T1 construct: fibrinogen alpha chain, human; fibrinogen beta chain, human; fibrinogen gamma chain, human; source: bought: Sigma-Aldrich (purified from human plasma)
T1 sequence (looked up) 1: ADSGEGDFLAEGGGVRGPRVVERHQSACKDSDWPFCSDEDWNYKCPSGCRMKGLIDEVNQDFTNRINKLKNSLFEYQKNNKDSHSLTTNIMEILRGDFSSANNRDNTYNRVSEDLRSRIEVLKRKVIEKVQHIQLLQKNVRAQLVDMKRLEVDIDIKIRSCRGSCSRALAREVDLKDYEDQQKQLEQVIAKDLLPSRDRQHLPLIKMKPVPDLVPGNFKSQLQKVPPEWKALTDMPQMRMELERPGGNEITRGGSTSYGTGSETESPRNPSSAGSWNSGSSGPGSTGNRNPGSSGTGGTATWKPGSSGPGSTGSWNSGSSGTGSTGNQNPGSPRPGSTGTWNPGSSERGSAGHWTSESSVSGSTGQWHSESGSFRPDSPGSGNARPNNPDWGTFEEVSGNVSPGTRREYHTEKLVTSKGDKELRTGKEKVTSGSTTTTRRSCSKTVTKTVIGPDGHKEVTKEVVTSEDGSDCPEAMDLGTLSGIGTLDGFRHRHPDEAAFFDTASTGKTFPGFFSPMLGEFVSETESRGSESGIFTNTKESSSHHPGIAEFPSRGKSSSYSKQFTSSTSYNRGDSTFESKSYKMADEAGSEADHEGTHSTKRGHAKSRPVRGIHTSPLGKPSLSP
T1 sequence (looked up) 2: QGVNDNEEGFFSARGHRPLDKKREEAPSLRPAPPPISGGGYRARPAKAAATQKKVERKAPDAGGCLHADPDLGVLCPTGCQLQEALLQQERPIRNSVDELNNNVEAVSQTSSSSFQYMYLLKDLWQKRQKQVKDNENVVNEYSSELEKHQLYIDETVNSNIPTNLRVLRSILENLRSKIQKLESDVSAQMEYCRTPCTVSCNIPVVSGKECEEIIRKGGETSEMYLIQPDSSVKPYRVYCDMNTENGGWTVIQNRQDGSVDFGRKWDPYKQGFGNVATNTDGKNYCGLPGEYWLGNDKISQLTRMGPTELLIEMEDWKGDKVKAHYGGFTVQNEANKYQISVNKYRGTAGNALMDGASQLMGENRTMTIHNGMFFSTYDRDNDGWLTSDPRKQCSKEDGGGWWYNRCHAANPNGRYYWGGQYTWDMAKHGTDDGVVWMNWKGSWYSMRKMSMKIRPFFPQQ
T1 sequence (looked up) 3: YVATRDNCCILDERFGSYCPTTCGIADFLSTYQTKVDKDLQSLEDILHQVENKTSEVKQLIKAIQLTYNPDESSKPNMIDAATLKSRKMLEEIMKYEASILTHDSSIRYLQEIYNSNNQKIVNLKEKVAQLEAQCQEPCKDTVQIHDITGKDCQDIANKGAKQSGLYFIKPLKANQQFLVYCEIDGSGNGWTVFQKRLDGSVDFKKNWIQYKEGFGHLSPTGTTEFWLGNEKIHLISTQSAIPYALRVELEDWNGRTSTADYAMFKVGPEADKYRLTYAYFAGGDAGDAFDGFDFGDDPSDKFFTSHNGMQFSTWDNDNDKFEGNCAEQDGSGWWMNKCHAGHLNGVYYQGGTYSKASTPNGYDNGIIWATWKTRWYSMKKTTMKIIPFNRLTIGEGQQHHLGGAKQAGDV

T2: elastin (purified from bovine neck ligament) (bovine, UniProt P04985 27-747)
T2 construct: elastin, bovine, purified from neck ligament; an insoluble protein; Insoluble material of tissue; used coated on wells (ELISA) and as a solid in the co-sedimentation; also called insoluble elastin; source: bought: Sigma-Aldrich (purified from bovine neck ligament)
T2 sequence (looked up): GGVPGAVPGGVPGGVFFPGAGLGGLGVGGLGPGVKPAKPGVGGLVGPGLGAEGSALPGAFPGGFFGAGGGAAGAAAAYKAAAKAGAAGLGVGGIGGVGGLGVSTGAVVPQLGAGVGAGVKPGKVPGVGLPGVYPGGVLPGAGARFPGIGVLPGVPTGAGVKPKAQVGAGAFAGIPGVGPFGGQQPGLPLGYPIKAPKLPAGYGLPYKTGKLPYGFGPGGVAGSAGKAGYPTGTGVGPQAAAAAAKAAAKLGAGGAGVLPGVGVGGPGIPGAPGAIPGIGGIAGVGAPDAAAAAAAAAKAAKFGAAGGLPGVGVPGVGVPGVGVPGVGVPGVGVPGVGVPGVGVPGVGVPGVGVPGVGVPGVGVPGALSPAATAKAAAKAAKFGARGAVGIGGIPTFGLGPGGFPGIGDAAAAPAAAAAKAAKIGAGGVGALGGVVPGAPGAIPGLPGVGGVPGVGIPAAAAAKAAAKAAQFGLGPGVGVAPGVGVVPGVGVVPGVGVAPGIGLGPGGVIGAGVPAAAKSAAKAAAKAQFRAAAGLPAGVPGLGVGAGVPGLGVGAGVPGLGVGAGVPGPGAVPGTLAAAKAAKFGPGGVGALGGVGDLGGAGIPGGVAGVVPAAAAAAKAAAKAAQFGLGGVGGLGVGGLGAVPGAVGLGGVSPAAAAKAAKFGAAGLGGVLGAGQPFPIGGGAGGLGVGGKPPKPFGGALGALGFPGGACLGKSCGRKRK

B1: truncated form of leptospiral immunoglobulin-like protein B (LigBC, amino acids 631-1156) (domain or fragment)
chain: AEIKNTSGSKGITNTLTPGSSEISAALGSIKSSKVILKVTPAQLISIAVTPINPSVAKGLIRQFKATGTYTDHSVQDVTALATWSSSNPGKAMVNNVTGSVTTVATGNTNIKATIDSISGSSVLNVTPALLTSIEITPTINSITHGLTKQFKATGIFSDKSTQNLTQLVTWISSDPSKIEIENTSGKKGIATASKLGSSNIKAVYKFIQSSPIPITVTDLKLKSITISPSSSSIAKGLTQQFKAIGTFIDGSEQEITNLVTWYSSKSDVAPINNAANAKGLATALSIGSSNISAIYNSISSNKINFNVSAATLDSIKINPVNNNIAKGLTQQYTALGVYSDSTIQDISDSVTWSSSNSDSISISNSTETKGKATALQIGNSKITATYNSISENIDITVSAATLSSISISPINTNINATVSKQFFAVGTYSDGTKADLTSSVTWSSSNKSQAKVSNASKTKGLVTGIASGNSIITATYGSVSGNTILTVNKTDTIAPTVQSVVSLSPTTIQVVYSESINNKEALDLS
notes: leptospiral immunoglobulin-like protein B (LigB), GenBank AAS69085, amino acids 631-1156, 56 kDa; half of immunoglobulin-like repeat 7 plus domains 8 to 12; source: LPS removed on Detoxi-Gel
B2: GroEL protein of Leptospira interrogans (recombinant, His-tagged) (natural protein, UniProt P61438 1-546, looked up)
chain: MAKDIEYNETARRKLLEGVNKLANAVKVTLGPKGRNVVIDKKFGAPTITKDGVTVAKEIELEDPLENMGAQMVKEVSTKTNDVAGDGTTTATILAQSIINEGLKNVTAGANPMSLKKGIDKAVTAAVESIQKRAVKIENKKDIANVASISANNDNTIGNLIADAMDKVGKDGVITVEEAKSIETTLDVVEGMQFDRGYISPYMVTDAESMVATLNDPFILIYDKKISSMKDLIHILEKVAQAGKPLVIISEEVEGEALATIVVNTLRKTISCVAVKAPGFGDRRKSMLEDIAILTGGQVISEDLGMKLENTTLQMLGRANKVTVDKENTTIIEGKGQTKEIQGRIGQIKKQIEDTTSEYDREKLQERLAKLAGGVAVIHVGAATEVEMKEKKARVEDALSATRAAVEEGIVPGGGLTLLKAQEAVGSLKLDGDEATGAKIIFRALEEPIRMITSNAGLEGSVIVEHAKAKKGNEGFNALTMVWEDMIQAGVVDPAKVVRSALQNAASIGSMILTTEVTITDKPDKDAPNPMAGMGGGGMGGMGGMM
notes: GroEL (chaperonin 60, HSP60) of L. interrogans serovar Copenhageni strain Fiocruz L1-130, GenBank AAS69936.1, 60 kDa; Cloned BamHI/HindIII into the vector pAE; as far as I recall pAE adds an N-terminal His6 tag; also called chaperonin 60; Cpn60; source: LPS removed on Detoxi-Gel

Key:
Test in all cases: ELISA; host protein coated on microtiter wells; recombinant protein varied from 0 to 2 μM; absorbance with BSA subtracted; apparent Kd from the half-maximal binding concentration (GraphPad Prism 6)
Settings in all cases: both partners purified
[1] = biological target: T1, fibrinogen (purified from human plasma)
[2] = biological target: T3, collagen Type I (purified from rat tail) (rat, UniProt P02454 152-1207; P02466 86-1125)
T3 construct: collagen type I alpha 1 chain, rat; collagen type I alpha 2 chain, rat; also called collagen I; source: bought: Sigma-Aldrich (purified from rat tail)

[3] = biological target: T4, collagen Type IV (purified from basement membrane of Engelbreth-Holm-Swarm mouse sarcoma) (mouse, UniProt P02463 173-1669; P08122 184-1707)
T4 construct: collagen type IV alpha 1 chain, mouse; collagen type IV alpha 2 chain, mouse; also called collagen IV; source: bought: Sigma-Aldrich (purified from basement membrane of Engelbreth-Holm-Swarm mouse sarcoma)

[4] = biological target: T5, laminin (purified from basement membrane of Engelbreth-Holm-Swarm mouse sarcoma) (mouse, UniProt P19137 25-3083; P02469 22-1786; P02468 34-1607)
T5 construct: source: bought: Sigma-Aldrich (purified from basement membrane of Engelbreth-Holm-Swarm mouse sarcoma)

[5] = biological target: T2, elastin (purified from bovine neck …)

T4 sequence (P02463 173-1669, chain 1 of 2): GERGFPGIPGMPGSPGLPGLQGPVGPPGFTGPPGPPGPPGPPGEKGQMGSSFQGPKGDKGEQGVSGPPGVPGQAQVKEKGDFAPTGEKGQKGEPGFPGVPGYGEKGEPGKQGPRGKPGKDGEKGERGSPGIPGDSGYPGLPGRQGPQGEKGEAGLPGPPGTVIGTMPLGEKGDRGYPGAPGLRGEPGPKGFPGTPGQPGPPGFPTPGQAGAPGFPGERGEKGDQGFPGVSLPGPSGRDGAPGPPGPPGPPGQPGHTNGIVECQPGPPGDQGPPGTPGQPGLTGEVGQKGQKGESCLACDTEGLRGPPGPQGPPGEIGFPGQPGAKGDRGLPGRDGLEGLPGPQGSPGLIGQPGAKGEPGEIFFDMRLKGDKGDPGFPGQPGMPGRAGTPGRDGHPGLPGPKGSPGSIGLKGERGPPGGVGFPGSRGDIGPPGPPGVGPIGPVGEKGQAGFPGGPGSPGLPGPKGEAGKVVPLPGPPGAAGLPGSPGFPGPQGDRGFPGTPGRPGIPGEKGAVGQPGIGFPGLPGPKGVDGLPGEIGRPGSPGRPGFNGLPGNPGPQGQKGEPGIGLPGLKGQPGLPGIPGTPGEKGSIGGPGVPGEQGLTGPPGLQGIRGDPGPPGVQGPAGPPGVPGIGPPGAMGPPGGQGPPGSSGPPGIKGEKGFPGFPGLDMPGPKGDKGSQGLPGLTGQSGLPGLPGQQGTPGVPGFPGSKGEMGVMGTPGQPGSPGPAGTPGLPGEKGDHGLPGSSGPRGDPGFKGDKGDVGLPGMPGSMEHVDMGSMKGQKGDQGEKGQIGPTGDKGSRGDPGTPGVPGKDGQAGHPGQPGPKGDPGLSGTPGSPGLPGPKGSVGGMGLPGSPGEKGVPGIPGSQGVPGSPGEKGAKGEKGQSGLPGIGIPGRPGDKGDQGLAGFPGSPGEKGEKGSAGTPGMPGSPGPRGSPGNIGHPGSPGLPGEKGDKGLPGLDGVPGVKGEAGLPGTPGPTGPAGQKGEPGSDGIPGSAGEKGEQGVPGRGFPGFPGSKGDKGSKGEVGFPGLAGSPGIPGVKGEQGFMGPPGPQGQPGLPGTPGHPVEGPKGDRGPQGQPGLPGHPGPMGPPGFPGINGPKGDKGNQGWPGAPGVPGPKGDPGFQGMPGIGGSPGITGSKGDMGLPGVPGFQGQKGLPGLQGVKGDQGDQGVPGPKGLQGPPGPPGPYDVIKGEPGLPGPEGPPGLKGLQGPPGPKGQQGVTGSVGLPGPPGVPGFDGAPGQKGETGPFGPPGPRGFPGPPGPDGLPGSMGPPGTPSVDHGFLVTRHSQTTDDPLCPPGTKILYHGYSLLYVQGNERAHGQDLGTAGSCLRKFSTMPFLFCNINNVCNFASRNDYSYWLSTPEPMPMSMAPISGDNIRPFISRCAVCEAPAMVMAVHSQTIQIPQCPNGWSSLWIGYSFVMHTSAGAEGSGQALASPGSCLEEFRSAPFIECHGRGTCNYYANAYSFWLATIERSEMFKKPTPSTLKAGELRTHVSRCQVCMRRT
T4 sequence (P08122 184-1707, chain 2 of 2): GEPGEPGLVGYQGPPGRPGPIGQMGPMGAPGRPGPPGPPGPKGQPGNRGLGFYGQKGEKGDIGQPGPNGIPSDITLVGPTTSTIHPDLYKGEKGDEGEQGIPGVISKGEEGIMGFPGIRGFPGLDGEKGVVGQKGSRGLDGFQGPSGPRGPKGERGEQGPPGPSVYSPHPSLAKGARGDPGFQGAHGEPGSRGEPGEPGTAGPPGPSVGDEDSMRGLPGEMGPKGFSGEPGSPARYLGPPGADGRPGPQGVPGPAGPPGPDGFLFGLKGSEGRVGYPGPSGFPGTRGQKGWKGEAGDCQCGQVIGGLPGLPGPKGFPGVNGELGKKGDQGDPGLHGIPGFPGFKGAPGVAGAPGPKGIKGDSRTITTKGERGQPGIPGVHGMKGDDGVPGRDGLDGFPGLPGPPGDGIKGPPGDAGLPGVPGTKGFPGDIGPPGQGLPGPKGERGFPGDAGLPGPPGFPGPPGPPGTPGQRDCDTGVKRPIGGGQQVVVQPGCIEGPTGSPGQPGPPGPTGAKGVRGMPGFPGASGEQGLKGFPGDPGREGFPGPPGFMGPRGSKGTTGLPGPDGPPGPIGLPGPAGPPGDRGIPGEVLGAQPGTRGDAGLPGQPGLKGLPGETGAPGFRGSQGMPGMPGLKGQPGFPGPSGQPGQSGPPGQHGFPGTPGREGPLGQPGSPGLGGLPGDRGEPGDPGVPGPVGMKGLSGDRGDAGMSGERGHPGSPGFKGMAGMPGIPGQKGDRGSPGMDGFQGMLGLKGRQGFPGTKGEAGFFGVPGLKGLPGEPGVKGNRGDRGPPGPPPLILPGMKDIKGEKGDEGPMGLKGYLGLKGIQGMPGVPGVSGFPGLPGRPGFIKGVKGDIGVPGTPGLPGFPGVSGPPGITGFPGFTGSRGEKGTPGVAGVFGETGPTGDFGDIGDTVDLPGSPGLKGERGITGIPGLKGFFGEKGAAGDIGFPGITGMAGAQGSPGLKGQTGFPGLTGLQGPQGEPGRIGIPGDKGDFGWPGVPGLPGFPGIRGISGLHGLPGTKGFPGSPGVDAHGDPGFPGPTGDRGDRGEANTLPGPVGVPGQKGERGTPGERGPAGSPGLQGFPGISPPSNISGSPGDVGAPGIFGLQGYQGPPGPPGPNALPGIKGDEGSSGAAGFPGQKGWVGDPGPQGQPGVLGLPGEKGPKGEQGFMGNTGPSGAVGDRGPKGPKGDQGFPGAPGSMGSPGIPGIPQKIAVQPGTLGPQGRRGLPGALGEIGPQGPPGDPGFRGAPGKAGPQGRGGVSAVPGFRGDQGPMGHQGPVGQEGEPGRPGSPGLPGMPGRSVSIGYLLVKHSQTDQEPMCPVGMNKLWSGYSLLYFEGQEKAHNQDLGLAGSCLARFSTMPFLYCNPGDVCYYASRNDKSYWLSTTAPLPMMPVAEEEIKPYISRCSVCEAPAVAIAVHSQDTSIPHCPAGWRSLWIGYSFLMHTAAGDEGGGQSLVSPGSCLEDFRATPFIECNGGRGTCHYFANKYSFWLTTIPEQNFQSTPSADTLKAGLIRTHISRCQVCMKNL
T3 sequence (P02454 152-1207, chain 1 of 2): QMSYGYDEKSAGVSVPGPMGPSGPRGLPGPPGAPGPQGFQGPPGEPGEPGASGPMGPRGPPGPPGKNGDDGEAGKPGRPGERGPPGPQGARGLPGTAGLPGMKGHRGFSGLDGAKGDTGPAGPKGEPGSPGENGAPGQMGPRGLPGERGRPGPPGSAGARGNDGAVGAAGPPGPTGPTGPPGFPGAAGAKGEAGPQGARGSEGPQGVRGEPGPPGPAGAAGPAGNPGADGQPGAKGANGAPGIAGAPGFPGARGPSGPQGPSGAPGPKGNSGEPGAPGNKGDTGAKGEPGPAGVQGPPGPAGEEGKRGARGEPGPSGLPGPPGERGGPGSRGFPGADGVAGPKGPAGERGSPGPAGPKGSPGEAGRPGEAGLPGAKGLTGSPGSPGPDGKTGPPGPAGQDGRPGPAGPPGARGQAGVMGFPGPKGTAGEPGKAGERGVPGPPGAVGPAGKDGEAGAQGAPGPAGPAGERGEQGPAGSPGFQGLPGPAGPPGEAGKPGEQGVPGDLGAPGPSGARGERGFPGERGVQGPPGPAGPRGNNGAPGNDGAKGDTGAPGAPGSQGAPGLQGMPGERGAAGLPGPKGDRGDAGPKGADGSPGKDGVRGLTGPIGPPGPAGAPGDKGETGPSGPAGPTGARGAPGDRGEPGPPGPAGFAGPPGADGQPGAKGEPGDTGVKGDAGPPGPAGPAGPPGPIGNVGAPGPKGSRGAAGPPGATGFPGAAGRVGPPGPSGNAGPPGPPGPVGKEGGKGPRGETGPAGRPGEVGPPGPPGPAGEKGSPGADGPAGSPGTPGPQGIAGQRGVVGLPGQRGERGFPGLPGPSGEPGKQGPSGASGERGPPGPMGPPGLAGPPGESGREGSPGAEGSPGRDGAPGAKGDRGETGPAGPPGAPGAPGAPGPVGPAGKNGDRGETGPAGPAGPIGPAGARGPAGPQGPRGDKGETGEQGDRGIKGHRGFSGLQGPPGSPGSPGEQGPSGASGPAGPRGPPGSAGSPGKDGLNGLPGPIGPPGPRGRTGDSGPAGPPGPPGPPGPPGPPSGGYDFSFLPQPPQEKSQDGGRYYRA
T3 sequence (P02466 86-1125, chain 2 of 2): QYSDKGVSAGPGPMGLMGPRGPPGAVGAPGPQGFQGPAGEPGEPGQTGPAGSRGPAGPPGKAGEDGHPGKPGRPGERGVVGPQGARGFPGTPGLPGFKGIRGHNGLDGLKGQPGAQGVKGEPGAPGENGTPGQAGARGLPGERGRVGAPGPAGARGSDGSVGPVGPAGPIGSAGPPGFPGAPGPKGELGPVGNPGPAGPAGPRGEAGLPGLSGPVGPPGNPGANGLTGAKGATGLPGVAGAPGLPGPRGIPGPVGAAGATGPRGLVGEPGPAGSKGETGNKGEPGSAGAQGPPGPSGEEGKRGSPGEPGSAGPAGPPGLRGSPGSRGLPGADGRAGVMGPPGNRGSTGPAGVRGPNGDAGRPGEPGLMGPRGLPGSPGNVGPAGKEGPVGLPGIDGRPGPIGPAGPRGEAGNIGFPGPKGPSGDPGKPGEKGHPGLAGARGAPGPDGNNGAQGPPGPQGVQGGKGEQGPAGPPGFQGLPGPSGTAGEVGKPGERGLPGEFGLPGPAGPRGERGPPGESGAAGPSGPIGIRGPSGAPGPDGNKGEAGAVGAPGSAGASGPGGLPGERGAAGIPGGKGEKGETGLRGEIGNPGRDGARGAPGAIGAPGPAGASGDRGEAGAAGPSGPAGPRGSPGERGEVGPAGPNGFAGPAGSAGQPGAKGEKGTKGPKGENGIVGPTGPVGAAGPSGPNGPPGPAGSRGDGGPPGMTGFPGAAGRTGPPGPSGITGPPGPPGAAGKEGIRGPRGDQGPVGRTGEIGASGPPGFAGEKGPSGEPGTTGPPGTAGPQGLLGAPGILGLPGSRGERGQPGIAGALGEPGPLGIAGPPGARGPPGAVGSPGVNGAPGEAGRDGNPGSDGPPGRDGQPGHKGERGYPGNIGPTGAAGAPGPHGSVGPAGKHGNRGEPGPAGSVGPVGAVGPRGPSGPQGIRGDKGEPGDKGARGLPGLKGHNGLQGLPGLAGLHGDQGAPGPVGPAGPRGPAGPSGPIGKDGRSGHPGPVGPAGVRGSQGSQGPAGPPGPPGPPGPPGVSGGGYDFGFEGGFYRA

Row | Binder | Kd [1] [nM] | Kd [2] [nM] | Kd [3] [nM] | Kd [4] [nM] | Kd [5] [nM]
1 | B1 | 4 ± 1 | 8 ± 2 | 7 ± 1 | 41 ± 3 | 4 ± 1
2 | B2 |  |  | 6 ± 1 | 115 ± 12 | 23 ± 3
